“And” between values parts separate entries of the source, which are not always exact repeats. Identical values can stand only once.
Conditions: Bos taurus; pH 7.4; Thermal; CD; Tris-HCl 20 mM; CaCl2 1 mM; reversible: yes(>95%); whole UniProt chain shown

B1: Alpha-lactalbumin wild type, P00711 (protein)
chain: MMSFVSLLLVGILFHATQAEQLTKCEVFRELKDLKGYGGVSLPEWVCTTFHTSGYDTQAIVQNNDSTEYGLFQINNKIWCKDDQNPHSSNICNISCDKFLDDDLTDDIMCVKKILDKVGINYWLAHKALCSEKLDQWLCEKL
unfolding enthalpy (van 't Hoff): 64.5 kcal/mol and 73.8 kcal/mol and 73.4 kcal/mol
